Laboratory results reported in PMC10762164, “Lipid nanodisc scaffold and size alter the structure of a pentameric ligand-gated ion channel” (Nature Communications, 2024).

What was measured:
[1] = biological target: the molecule itself; test: cryo-EM structure; single particle cryo-EM of ELIC or ELIC5 in SMA, saposin, spMSP1D1 or spNW15 nanodiscs with 2:1:1 POPC:POPE:POPG; 10 mM HEPES pH 7.5, 100 mM NaCl; with 50 mM propylamine or apo; C5 symmetry in 3D classification and refinement
[2] = biological target: the molecule itself; test: cryo-EM structure

Protein | binding result [1] | binding result [2]
Erwinia ligand-gated ion channel (ELIC), wild type (natural protein, UniProt P0C7B7 1-321, looked up, Erwinia ligand-gated ion channel (ELIC), a pentameric ligand-gated ion channel, from plasmid pET-26-MBP-ELIC; Homopentamer; also called WT ELIC) APADNAADARPVDVSVSIFINKIYGVNTLEQTYKVDGYIVAQWTGKPRKTPGDKPLIVENTQIERWINNGLWVPALEFINVVGSPDTGNKRLMLFPDGRVIYNARFLGSFSNDMDFRLFPFDRQQFVLELEPFSYNNQQLRFSDIQVYTENIDNEEIDEWWIRKASTHISDIRYDHLSSVQPNQNEFSRITVRIDAVRNPSYYLWSFILPLGLIIAASWSVFWLESFSERLQTSFTLMLTVVAYAFYTSNILPRLPYTTVIDQMIIAGYGSIFAAILLIIFAHHRQAMGVEDDLLIQRCRLAFPLGFLAIGCVLVIRGITL | binds | –
ELIC5 (P254G/C300S/V261Y/G319F/I320F), non-desensitizing mutant of ELIC (natural protein) APADNAADARPVDVSVSIFINKIYGVNTLEQTYKVDGYIVAQWTGKPRKTPGDKPLIVENTQIERWINNGLWVPALEFINVVGSPDTGNKRLMLFPDGRVIYNARFLGSFSNDMDFRLFPFDRQQFVLELEPFSYNNQQLRFSDIQVYTENIDNEEIDEWWIRKASTHISDIRYDHLSSVQPNQNEFSRITVRIDAVRNPSYYLWSFILPLGLIIAASWSVFWLESFSERLQTSFTLMLTVVAYAFYTSNILGRLPYTTYIDQMIIAGYGSIFAAILLIIFAHHRQAMGVEDDLLIQRSRLAFPLGFLAIGCVLVIRFFTL | – | binds
